Reference: publication PMC11341690

T1: PglX NTD (Salmonella D23580 (S. Typhimurium), UniProt A0A6C7IK61 1-661)
T1 sequence: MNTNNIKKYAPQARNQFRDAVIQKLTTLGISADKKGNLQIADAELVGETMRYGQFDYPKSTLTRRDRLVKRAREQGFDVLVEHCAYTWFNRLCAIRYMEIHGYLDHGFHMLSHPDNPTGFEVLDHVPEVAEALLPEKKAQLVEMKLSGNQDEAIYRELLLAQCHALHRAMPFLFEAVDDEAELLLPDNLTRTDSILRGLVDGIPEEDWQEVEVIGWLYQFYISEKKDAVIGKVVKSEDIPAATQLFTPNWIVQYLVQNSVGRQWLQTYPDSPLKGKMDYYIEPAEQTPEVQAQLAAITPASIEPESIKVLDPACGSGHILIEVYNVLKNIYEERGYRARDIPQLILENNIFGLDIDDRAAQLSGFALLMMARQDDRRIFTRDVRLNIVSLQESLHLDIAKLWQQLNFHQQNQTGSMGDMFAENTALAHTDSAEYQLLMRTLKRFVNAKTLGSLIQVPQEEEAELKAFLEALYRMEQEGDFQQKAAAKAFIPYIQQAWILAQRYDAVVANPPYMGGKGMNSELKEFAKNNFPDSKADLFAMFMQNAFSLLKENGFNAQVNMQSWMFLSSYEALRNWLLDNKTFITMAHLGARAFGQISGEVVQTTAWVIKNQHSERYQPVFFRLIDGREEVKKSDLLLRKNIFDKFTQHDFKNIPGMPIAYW

T2: PglX WT (Salmonella D23580 (S. Typhimurium), UniProt A0A6C7IK61 1-1225)
T2 sequence: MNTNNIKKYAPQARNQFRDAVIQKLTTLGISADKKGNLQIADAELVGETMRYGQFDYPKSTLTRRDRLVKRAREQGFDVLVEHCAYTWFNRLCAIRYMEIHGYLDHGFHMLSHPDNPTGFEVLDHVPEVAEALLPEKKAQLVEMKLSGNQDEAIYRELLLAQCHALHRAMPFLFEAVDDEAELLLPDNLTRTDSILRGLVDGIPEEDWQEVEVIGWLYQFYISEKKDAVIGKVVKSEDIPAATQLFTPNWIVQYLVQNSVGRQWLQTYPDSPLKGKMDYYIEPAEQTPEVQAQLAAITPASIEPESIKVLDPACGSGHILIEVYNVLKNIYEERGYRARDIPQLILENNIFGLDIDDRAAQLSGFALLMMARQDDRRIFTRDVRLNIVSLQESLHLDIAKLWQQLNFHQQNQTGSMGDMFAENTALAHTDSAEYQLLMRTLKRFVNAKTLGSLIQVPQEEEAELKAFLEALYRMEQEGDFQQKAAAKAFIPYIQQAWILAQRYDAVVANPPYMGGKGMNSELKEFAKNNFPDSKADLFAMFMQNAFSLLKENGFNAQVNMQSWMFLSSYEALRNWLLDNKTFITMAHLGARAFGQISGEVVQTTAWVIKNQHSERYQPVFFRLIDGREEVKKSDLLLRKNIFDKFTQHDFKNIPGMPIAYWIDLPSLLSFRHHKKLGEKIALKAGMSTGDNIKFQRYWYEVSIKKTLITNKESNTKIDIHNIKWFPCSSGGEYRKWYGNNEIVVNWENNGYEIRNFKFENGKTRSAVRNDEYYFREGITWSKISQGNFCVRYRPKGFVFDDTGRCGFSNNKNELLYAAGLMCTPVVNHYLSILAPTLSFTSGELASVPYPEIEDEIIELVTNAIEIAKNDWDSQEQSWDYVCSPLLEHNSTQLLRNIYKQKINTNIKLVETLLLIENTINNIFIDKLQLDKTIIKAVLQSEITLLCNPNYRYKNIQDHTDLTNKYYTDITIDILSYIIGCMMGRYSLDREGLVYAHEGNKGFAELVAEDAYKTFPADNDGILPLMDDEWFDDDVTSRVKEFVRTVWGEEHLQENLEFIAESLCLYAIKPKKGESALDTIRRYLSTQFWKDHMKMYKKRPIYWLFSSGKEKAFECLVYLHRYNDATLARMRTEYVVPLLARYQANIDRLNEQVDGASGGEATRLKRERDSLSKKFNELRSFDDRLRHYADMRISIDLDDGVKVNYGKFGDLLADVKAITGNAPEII


Legend:
[1] = target: PglX (Salmonella enterica serovar Typhimurium ST313 strain D23580 BREX methyltransferase), wild type (Salmonella enterica serovar Typhimurium ST313 strain D23580); assay: mass photometry; PglX proteins with equimolar Ocr; TwoMP (Refeyn); 1 uM for 1 h on ice in 10 mM Tris pH 7.9, 25 mM NaCl, 0.5 uM SAM, 0.5 uM MgCl2, then diluted to 5 nM
PglX (PglX-SAM) = target: T3, PglX (PglX-SAM) (Salmonella enterica, UniProt A0A6C7IK61); conditions: PglX incubated with 1 mM SAM before crystallisation; methyltransferase pocket between GSG and NPPY motifs; no DNA
T3 construct: gene STMMW_44401

PglX-SAM:Ocr complex = target: T4, PglX-SAM:Ocr complex (Salmonella enterica, UniProt A0A6C7IK61); conditions: PglX incubated with 1 mM SAM, then Ocr, before crystallisation; same methyltransferase pocket
T4 construct: gene STMMW_44401

PglX NTD = target: T1, PglX NTD; assay: mass photometry; NTD peak may include free DNA; mass photometry (Refeyn); buffer, salt, pH and temperature not given in the material; conditions: protein: recombinant; tags: untagged (His/SUMO tag removed by hSENP2); blunt
PglX WT [2] = target: T2, PglX WT; assay: mass photometry; 1:1 and 2:1 complexes; mass photometry (Refeyn); buffer, salt, pH and temperature not given in the material; conditions: protein: recombinant; tags: untagged (His/SUMO tag removed by hSENP2); blunt
PglX WT [3] = target: T2, PglX WT; assay: mass photometry; 1:1, 2:1 and 3:1 complexes; non-specific; mass photometry (Refeyn); buffer, salt, pH and temperature not given in the material; conditions: protein: recombinant; tags: untagged (His/SUMO tag removed by hSENP2); blunt
PglX WT [4] = target: T2, PglX WT; assay: mass photometry; 1:1, 2:1 and 3:1 complexes; mass photometry (Refeyn); buffer, salt, pH and temperature not given in the material; conditions: protein: recombinant; tags: untagged (His/SUMO tag removed by hSENP2); blunt

Molecule	binding result (PglX NTD)	binding result (PglX WT [2])	other results
Ocr from phage T7 (DNA mimic, anti-restriction and anti-BREX protein) (from UniProt P03775 1-117) (natural protein)	–	–	stoichiometry N (Ocr per PglX (1:2 PglX WT:Ocr)) [1]: 2; stoichiometry N (Ocr per PglX (2:2 PglX WT:Ocr)) [1]: 1
C[S+](CC[C@H](N)C(=O)O)C[C@H]1O[C@@H](n2cnc3c(N)ncnc32)[C@H](O)[C@@H]1O (stereo partly drawn) [SAM, S-adenosyl-L-methionine]	–	–	X-ray crystal structure, 3.5 A (PglX (PglX-SAM)): crystallographic structure of Salmonella PglX bound to S-adenosyl-L-methionine (SAM), a co-factor for methylation; X-ray crystal structure, 3.5 A (PglX-SAM:Ocr complex): visible in the PglX-SAM:Ocr structure is a bound SAM molecule
DNA 1 (TRB2180/TRB2181) (dsDNA) DNA 1: GGTATCCGTTCGTCATAGGCTCAAAGCGTCTCCTGAGTCTCGGATCAGTACGAACTACCGGAACCAACACGACTGATCGTCTTCGGTGACCATTGCAACACTAGTATCTCGAGTGCCGTG DNA 2: CACGGCACTCGAGATACTAGTGTTGCAATGGTCACCGAAGACGATCAGTCGTGTTGGTTCCGGTAGTTCGTACTGATCCGAGACTCAGGAGACGCTTTGAGCCTATGACGAACGGATACC	no binding	binds	–
DNA 2 (TRB2182/TRB2183) (dsDNA) DNA 1: GGTATCCGTTCGTCATAGGCTCAAAGCGTCTCCTGAGTCTCGGATCAGTACGAACTACCGGAACCAACACGAGATCAGGTCTTCGGTGACCATTGCAACACTAGTATCTCGAGTGCCGTG DNA 2: CACGGCACTCGAGATACTAGTGTTGCAATGGTCACCGAAGACCTGATCTCGTGTTGGTTCCGGTAGTTCGTACTGATCCGAGACTCAGGAGACGCTTTGAGCCTATGACGAACGGATACC	no binding	binds	–
DNA 4 (TRB2186/TRB2187) (dsDNA) DNA 1: GGTATCCGTTCGTCATAGGCTCAAAGCGTCTCCTGAGTCTCGTGTACCTACGAACTACCGGAACCAACACGACAATACGTCTTCGGTGACCATTGCAACACTAGTATCTCGAGTGCCGTG DNA 2: CACGGCACTCGAGATACTAGTGTTGCAATGGTCACCGAAGACGTATTGTCGTGTTGGTTCCGGTAGTTCGTAGGTACACGAGACTCAGGAGACGCTTTGAGCCTATGACGAACGGATACC	no binding	–	binding result (PglX WT [3]): binds
DNA 3 (TRB2184/TRB2185) (dsDNA) DNA 1: GGTATCCGTTCGTCATAGGCTCAAAGCGTCTCCTGAGTCTCGGATCAGTACGAACTACCGGAACCAACACGACAATACGTCTTCGGTGACCATTGCAACACTAGTATCTCGAGTGCCGTG DNA 2: CACGGCACTCGAGATACTAGTGTTGCAATGGTCACCGAAGACGTATTGTCGTGTTGGTTCCGGTAGTTCGTACTGATCCGAGACTCAGGAGACGCTTTGAGCCTATGACGAACGGATACC	no binding	–	binding result (PglX WT [4]): binds
